Reference: patent publication US20020142982A1 (published 2002)

Biological target: T1, beta-catenin (endogenous, HUVEC) (human (HUVEC), UniProt P35222 2-781)
T1 construct: also called β-catenin
T1 sequence (looked up): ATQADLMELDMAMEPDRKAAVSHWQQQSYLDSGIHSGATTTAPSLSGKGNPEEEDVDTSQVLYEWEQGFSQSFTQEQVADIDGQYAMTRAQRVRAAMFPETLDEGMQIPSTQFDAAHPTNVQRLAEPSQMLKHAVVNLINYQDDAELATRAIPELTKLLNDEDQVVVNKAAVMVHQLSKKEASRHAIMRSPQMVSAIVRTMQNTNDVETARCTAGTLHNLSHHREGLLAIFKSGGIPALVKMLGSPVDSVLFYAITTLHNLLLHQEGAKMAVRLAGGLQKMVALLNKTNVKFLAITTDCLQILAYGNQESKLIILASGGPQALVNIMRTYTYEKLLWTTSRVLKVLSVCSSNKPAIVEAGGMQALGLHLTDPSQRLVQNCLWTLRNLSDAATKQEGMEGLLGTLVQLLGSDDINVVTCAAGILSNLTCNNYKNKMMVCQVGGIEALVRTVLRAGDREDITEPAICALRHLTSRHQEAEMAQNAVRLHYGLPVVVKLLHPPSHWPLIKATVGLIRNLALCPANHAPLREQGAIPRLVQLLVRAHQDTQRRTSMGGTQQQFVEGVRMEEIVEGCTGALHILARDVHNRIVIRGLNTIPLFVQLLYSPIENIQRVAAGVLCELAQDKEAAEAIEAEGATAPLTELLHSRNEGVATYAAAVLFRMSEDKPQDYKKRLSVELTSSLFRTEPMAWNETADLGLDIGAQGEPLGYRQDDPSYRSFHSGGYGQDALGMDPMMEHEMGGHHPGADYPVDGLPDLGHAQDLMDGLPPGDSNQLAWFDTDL
Assay: co-immunoprecipitation of 35S-labelled, DSP cross-linked detergent-insoluble HUVEC extracts
Experimental: HUVEC were labeled to steady state with ^35Smethionine (250 μCi/mL, NEN DuPont) for 24 hours. After stimulation with 500 nM SPP for 1 hour, cells were fractionated with 0.5% TX-100. After centrifugation (15,000 g, 15 minutes), the protein complexes in detergent-insoluble fractions were cross-linked with 0.5 mM Dithiobis[succinimidyl propionate] (DSP; Pierce Chemical Co., Rockford, Ill.) (Hinck, L., J. Cell Biol. 125: 1327-1340 (1994)), and extracted with 1% TX-100-1% SDS as described above. Cell extracts were then immunoprecipitated with antibodies to VE cadherin, β-catenin, γ-catenin, or p120 Src (p120^cas, Transduction Laboratories). The immunoprecipitated complexes were then reduced by incubating in sample buffer containing 2% β-mercaptoethanol at 95° C. for 10 minutes, 10 μL dithiothreitol (1 M) was added to each gel lanes before protein separation by SDS-PAGE.

B1: gamma-catenin (endogenous, HUVEC) (other, human (HUVEC), UniProt P14923 1-745, looked up)
chain: MEVMNLMEQPIKVTEWQQTYTYDSGIHSGANTCVPSVSSKGIMEEDEACGRQYTLKKTTTYTQGVPPSQGDLEYQMSTTARAKRVREAMCPGVSGEDSSLLLATQVEGQATNLQRLAEPSQLLKSAIVHLINYQDDAELATRALPELTKLLNDEDPVVVTKAAMIVNQLSKKEASRRALMGSPQLVAAVVRTMQNTSDLDTARCTTSILHNLSHHREGLLAIFKSGGIPALVRMLSSPVESVLFYAITTLHNLLLYQEGAKMAVRLADGLQKMVPLLNKNNPKFLAITTDCLQLLAYGNQESKLIILANGGPQALVQIMRNYSYEKLLWTTSRVLKVLSVCPSNKPAIVEAGGMQALGKHLTSNSPRLVQNCLWTLRNLSDVATKQEGLESVLKILVNQLSVDDVNVLTCATGTLSNLTCNNSKNKTLVTQNSGVEALIHAILRAGDKDDITEPAVCALRHLTSRHPEAEMAQNSVRLNYGIPAIVKLLNQPNQWPLVKATIGLIRNLALCPANHAPLQEAAVIPRLVQLLVKAHQDAQRHVAAGTQQPYTDGVRMEEIVEGCTGALHILARDPMNRMEIFRLNTIPLFVQLLYSSVENIQRVAAGVLCELAQDKEAADAIDAEGASAPLMELLHSRNEGTATYAAAVLFRISEDKNPDYRKRVSVELTNSLFKHDPAAWEAAQSMIPINEPYGDDMDATYRPMYSSDVPLDPLEMHMDMDGDYPIDTYSDGLRPPYPTADHMLA
notes: also called γ-catenin
Q: Does B1 bind?
A: Result: no binding
